Laboratory results published in PMC4921775, “Transient Fcho1/2⋅Eps15/R⋅AP-2 Nanoclusters Prime the AP-2 Clathrin Adaptor for Cargo Binding” (Developmental Cell, 2016).
Values belong to the molecule of their own block, whether it stands above or below them. No end group written: not given here.

Legend:
[1] = target: AP-2 α-appendage appendage (UniProt P17426); conditions: cited from earlier work
FCHO1 μHD S732D = target: T1, FCHO1 μHD S732D (Homo sapiens); assay: ITC
T1 chain: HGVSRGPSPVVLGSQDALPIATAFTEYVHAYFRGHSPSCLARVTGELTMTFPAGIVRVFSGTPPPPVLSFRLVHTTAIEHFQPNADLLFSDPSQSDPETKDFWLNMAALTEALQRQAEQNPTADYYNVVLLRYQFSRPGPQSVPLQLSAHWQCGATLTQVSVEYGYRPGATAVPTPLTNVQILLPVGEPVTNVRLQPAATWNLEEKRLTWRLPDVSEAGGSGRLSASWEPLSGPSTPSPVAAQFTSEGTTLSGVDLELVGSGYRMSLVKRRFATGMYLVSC

FCHO1 μHD R872M = target: T2, FCHO1 μHD R872M (Homo sapiens); assay: ITC
T2 chain: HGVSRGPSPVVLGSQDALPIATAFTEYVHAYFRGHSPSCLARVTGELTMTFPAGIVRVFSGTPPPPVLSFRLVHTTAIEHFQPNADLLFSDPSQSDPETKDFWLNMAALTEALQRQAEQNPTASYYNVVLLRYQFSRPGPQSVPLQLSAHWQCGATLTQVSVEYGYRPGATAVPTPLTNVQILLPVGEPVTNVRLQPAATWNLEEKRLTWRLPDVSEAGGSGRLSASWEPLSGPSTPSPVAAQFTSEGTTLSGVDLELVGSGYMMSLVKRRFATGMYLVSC

[2] = target: T3, Danio rerio (Dr) Fcho1 μHD (Danio rerio (zebrafish)); assay: ITC
T3 chain: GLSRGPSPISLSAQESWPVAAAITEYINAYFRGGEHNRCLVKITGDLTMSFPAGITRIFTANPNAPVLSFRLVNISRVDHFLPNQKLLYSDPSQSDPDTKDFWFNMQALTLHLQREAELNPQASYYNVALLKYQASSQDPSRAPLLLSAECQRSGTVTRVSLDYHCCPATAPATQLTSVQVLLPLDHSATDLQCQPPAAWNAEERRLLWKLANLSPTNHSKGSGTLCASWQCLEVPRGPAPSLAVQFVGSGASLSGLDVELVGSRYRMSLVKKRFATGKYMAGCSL

[3] = target: T4, GST-FCHO1 μHD K877E + R879A (human, UniProt O14526 609-889, K877E | R879A); assay: pull-down; HeLa cell lysate with 250 μg (Figure 3F: the indicated amount) of GST or GST-μHD fusion proteins immobilised on glutathione-Sepharose; supernatant and pellet stained or immunoblotted; Figures 1G, 3E, 3F; conditions: one partner purified
T4 construct: also called K877E + R879A mutant; source: GST-fusion protein immobilised on glutathione-Sepharose; not shown: GST, N-terminal, kept
T4 sequence (looked up): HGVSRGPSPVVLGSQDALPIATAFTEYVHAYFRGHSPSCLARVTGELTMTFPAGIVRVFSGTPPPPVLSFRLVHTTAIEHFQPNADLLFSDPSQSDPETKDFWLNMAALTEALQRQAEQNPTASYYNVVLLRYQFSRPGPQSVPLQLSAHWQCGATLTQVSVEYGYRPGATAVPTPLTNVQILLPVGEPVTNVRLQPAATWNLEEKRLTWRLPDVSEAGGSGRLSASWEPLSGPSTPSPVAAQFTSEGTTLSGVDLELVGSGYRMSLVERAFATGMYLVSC

FCHO1 μHD R872A+S874G = target: T5, FCHO1 μHD R872A+S874G (Homo sapiens); assay: ITC
T5 chain: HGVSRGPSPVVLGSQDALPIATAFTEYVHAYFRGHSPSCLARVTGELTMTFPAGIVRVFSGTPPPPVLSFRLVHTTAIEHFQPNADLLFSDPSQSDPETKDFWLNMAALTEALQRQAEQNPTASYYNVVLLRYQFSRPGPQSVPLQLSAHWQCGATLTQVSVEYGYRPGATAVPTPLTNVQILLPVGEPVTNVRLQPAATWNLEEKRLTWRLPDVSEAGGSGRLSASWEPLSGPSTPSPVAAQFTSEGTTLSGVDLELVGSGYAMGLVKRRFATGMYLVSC

[4] = target: T6, FCHO1 μHD (purified, not on beads) (human, UniProt O14526 609-889); assay: ITC; repeated injection of EPS15 peptides into a temperature-controlled solution of μHD, Nano ITC instrument (TA Instruments); minimum of four runs; conditions: both partners purified
T6 construct: human FCHO1 μ-homology domain (μHD); also called purified FCHO1 μHD; Hs FCHO1 μHD; source: purified
T6 sequence (looked up): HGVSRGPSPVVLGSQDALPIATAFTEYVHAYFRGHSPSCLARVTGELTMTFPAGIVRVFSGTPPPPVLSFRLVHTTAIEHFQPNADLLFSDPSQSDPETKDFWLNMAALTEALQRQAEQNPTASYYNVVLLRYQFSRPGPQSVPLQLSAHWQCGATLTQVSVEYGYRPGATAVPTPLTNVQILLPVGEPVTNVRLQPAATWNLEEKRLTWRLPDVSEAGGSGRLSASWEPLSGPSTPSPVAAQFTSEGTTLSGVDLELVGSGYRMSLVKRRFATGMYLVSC

[5] = target: T7, FCHO1 μHD K877E + R879A (for ITC) (human, UniProt O14526 609-889, K877E | R879A); assay: as above; conditions: both partners purified
T7 sequence (looked up): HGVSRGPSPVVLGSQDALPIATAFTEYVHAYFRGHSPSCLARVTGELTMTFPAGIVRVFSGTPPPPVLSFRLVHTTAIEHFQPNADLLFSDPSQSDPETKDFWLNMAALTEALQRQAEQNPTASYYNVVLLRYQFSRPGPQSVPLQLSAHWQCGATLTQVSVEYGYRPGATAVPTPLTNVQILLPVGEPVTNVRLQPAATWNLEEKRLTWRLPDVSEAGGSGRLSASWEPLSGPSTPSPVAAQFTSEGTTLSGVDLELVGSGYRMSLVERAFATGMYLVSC

[6] = target: T8, FCHO1 μHD A629E (for ITC) (human, UniProt O14526 609-889, A629E); assay: as above; conditions: both partners purified
T8 sequence (looked up): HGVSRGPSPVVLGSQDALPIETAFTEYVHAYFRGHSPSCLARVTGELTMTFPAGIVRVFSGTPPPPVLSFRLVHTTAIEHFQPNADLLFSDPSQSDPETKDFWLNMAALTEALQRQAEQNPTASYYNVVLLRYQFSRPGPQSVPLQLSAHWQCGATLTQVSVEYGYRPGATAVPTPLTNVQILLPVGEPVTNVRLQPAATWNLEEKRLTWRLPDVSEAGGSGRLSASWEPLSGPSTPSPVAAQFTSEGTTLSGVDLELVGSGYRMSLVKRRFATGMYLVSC

[7] = target: T9, FCHO1 μHD P627D + A629E (for ITC) (human, UniProt O14526 609-889, P627D | A629E); assay: as above; conditions: both partners purified
T9 sequence (looked up): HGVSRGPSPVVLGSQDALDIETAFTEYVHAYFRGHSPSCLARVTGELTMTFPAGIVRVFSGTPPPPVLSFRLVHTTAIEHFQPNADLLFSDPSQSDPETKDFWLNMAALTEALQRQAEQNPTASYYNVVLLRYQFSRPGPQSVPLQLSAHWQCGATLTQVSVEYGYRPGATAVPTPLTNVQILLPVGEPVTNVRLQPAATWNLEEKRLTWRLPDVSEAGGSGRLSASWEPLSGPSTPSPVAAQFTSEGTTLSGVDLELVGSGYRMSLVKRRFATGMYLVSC

[8] = target: T6, FCHO1 μHD (purified, not on beads); assay: pull-down; purified FCHO1 μHD with ~50 μg of GST or GST fusion protein in the presence of carrier BSA; stained or immunoblotted with an anti-FCHO1 monoclonal antibody; Figure 1D; conditions: both partners purified

Sequence of AP-2 α-appendage appendage (P17426 740-977): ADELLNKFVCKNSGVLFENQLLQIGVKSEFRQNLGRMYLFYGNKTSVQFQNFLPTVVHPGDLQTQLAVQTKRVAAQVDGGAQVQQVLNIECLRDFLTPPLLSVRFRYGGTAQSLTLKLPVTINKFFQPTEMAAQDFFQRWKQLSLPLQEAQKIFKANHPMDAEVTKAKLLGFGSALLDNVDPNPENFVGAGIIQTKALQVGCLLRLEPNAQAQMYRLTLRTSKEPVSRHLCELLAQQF

Molecule: Eps15 DPF motif (from UniProt P42566)
Kd [1]: 200 µM

B3: EPS15 616–638 peptide (peptide)
chain: NLDFFQSDPFVGSDPFKDDPFGK
Kd (FCHO1 μHD R872A+S874G): 77.4 µM

B4: EPS15 616–638 peptide (peptide, UniProt P42566 616-638, looked up)
peptide: NLDFFQSDPFVGSDPFKDDPFGK
Kd [4]: 2.7 µM
Kd [5]: > 300 µM
Kd [6]: > 300 µM
Kd [7]: > 300 µM

Continued, values first:

Kd (FCHO1 μHD S732D): 9.1 µM
Kd (FCHO1 μHD R872M): 19.6 µM
Kd [2]: 8.1 µM
B1: EPS15 616–638 peptide (peptide)
peptide: NLDFFQSDPFVGSDPFKDDPFGK

fold reduction of recovery against the wild-type μHD [3]: ≥ 25 fold
B2: EPS15 (epidermal growth factor pathway substrate 15) (natural protein, human (endogenous in HeLa), UniProt P42566 1-896, looked up)
chain: MAAAAQLSLTQLSSGNPVYEKYYRQVDTGNTGRVLASDAAAFLKKSGLPDLILGKIWDLADTDGKGILNKQEFFVALRLVACAQNGLEVSLSSLNLAVPPPRFHDTSSPLLISGTSAAELPWAVKPEDKAKYDAIFDSLSPVNGFLSGDKVKPVLLNSKLPVDILGRVWELSDIDHDGMLDRDEFAVAMFLVYCALEKEPVPMSLPPALVPPSKRKTWVVSPAEKAKYDEIFLKTDKDMDGFVSGLEVREIFLKTGLPSTLLAHIWSLCDTKDCGKLSKDQFALAFHLISQKLIKGIDPPHVLTPEMIPPSDRASLQKNIIGSSPVADFSAIKELDTLNNEIVDLQREKNNVEQDLKEKEDTIKQRTSEVQDLQDEVQRENTNLQKLQAQKQQVQELLDELDEQKAQLEEQLKEVRKKCAEEAQLISSLKAELTSQESQISTYEEELAKAREELSRLQQETAELEESVESGKAQLEPLQQHLQDSQQEISSMQMKLMEMKDLENHNSQLNWCSSPHSILVNGATDYCSLSTSSSETANLNEHVEGQSNLESEPIHQESPARSSPELLPSGVTDENEVTTAVTEKVCSELDNNRHSKEEDPFNVDSSSLTGPVADTNLDFFQSDPFVGSDPFKDDPFGKIDPFGGDPFKGSDPFASDCFFRQSTDPFATSSTDPFSAANNSSITSVETLKHNDPFAPGGTVVAASDSATDPFASVFGNESFGGGFADFSTLSKVNNEDPFRSATSSSVSNVVITKNVFEETSVKSEDEPPALPPKIGTPTRPCPLPPGKRSINKLDSPDPFKLNDPFQPFPGNDSPKEKDPEIFCDPFTSATTTTNKEADPSNFANFSAYPSEEDMIEWAKRESEREEEQRLARLNQQEQEDLELAIALSKSEISEA
notes: human EPS15, endogenous protein; also called native EPS15 dimer/tetramer

binding result [8]: binds
B5: GST-EPS15 (615–636) (peptide)
chain: {GST}-TNLDFFQSDPFVGSDPFKDDPF
notes: source: GST-fusion protein immobilised on glutathione-Sepharose; not shown: GST, N-terminal, kept
